Data on 1 molecule can be found in patent US20140106352A1 (DUKE UNIVERSITY, published 2014).

The assay deals with T1, nephrin (human, UniProt O60500 23-1241).
T1 construct: whole, on cells; Endogenous protein in fixed podocytes; also called NPHS1
T1 sequence (looked up): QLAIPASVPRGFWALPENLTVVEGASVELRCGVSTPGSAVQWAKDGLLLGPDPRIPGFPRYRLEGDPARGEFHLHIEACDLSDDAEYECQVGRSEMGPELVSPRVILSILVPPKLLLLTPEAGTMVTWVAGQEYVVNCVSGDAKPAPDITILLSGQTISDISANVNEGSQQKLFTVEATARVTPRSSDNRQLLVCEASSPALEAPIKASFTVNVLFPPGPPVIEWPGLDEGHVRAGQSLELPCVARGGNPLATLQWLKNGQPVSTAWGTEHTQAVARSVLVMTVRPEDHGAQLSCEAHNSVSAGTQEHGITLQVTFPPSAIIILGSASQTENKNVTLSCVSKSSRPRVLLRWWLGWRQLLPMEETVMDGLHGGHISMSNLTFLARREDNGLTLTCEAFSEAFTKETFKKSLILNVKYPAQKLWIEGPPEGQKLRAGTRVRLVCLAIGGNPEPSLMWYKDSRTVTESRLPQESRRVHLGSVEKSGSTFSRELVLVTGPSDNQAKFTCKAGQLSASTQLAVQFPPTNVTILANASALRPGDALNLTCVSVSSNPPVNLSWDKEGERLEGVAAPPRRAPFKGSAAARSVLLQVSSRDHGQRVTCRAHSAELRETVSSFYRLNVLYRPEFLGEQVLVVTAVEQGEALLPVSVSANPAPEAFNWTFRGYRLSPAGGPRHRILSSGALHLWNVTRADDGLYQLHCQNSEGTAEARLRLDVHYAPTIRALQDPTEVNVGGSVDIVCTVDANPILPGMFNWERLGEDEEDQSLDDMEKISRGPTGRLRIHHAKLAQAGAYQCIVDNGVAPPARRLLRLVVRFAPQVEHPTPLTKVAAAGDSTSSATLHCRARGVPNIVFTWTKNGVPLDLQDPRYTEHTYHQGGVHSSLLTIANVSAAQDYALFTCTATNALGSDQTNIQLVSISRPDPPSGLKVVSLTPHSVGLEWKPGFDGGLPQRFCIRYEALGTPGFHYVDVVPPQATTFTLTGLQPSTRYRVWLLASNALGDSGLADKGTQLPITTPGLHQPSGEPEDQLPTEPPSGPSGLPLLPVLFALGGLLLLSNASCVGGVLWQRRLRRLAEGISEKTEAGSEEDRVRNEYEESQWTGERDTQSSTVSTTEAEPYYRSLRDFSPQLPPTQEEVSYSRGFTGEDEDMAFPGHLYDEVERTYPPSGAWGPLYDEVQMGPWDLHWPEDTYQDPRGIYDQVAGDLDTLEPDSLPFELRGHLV
As to the kind of experiment: only co-localisation by immunofluorescence in immortalized human podocytes (FIG. 3); no direct binding assay. On the procedure:
Endogenous anillin protein staining is shown in red. Co-immunolabeling for anti-CD2AP (A) anti-RhoA (B), anti-nephrin (C) anti-INF2 (D) and anti-F-actin are shown in green. Cell nuclei are stained with DAPI (blue). Anillin is strongly expressed in both the nucleus and cytoplasm and co-localizes with CD2AP, RhoA, nephrin, INF2, F-actin and TRPC6, in cultured immortalized human podocytes. IgG served as the control antibody (0).
Immortalized human podocytes were cultured on collagen I-coated coverslips (BD Biosciences) and treated as indicated. Cells were then fixed with 4% paraformaldehyde in PBS (Sigma). Podocytes were then washed twice with ice cold PBS prior to permeabilization with 0.1% Triton X-100 in PBS. Cells were then washed with ice cold PBS twice and blocked with buffer containing 5% goat serum prior to incubation with rabbit polyclonal Anillin antibody (Bethyl Laboratories, Montgomery, Tex.), mouse monoclonal Rho A antibody (Abeam), mouse monoclonal nephrin antibody (Abgent, Inc, San Diego, Calif.), and mouse polyclonal CD2AP antibody (Santa Cruz Biotechnologies, Santa Cruz, Calif.) overnight at 4° C. Cells were then washed with ice cold PBS and secondary Alexa Flora 488 antibody was applied (invitrogen) at a concentration of 1:1,000 for 1 hour at room temperature. […]

B1: anillin (ANLN), wild-type, endogenous in immortalized human podocytes (other)
chain: MDPFTEKLLERTRARRENLQRKMAERPTAAPRSMTHAKRARQPLSEASNQQPLSGGEEKSCTKPSPSKKRCSDNTEVEVSNLENKQPVESTSAKSCSPSPVSPQVQPQAADTISDSVAVPASLLGMRRGLNSRLEATAASSVKTRMQKLAEQRRRWDNDDMTDDIPESSLFSPMPSEEKAASPPRPLLSNASATPVGRRGRLANLAATICSWEDDVNHSFAKQNSVQEQPGTACLSKFSSASGASARINSSSVKQEATFCSQRDGDASLNKALSSSADDASLVNASISSSVKATSPVKSTTSITDAKSCEGQNPELLPKTPISPLKTGVSKPIVKSTLSQTVPSKGELSREICLQSQSKDKSTTPGGTGIKPFLERFGERCQEHSKESPARSTPHRTPIITPNTKAIQERLFKQDTSSSTTHLAQQLKQERQKELACLRGRFDKGNIWSAEKGGNSKSKQLETKQETHCQSTPLKKHQGVSKTQSLPVTEKVTENQIPAKNSSTEPKGFTECEMTKSSPLKITLFLEEDKSLKVTSDPKVEQKIEVIREIEMSVDDDDINSSKVINDLFSDVLEEGELDMEKSQEEMDQALAESSEEQEDALNISSMSLLAPLAQTVGVVSPESLVSTPRLELKDTSRSDESPKPGKFQRTRVPRAESGDSLGSEDRDLLYSIDAYRSQRFKETERPSIKQVIVRKEDVTSKLDEKNNAFPCQVNIKQKMQELNNEINMQQTVIYQASQALNCCVDEEHGKGSLEEAEAERLLLIATGKRTLLIDELNKLKNEGPQRKNKASPQSEFMPSKGSVTLSEIRLPLKADFVCSTVQKPDAANYYYLIILKAGAENMVATPLASTSNSLNGDALTFTTTFTLQDVSNDFEINIEVYSLVQKKDPSGLDKKKKTSKSKAITPKRLLTSITTKSNIHSSVMASPGGLSAVRTSNFALVGSYTLSLSSVGNTKFVLDKVPFLSSLEGHIYLKIKCQVNSSVEERGFLTIFEDVSGFGAWHRRWCVLSGNCISYWTYPDDEKRKNPIGRINLANCTSRQIEPANREFCARRNTFELITVRPQREDDRETLVSQCRDTLCVTKNWLSADTKEERDLWMQKLNQVLVDIRLWQPDACYKPIGKP
notes: Endogenous intracellular protein stained in fixed, permeabilised immortalized human podocytes
Take B1: the binding result is given as “binds”.
